Source: patent US20250277767A1 (RAMOT AT TEL AVIV UNIVERSITY, published 2025)

Assays:
[1] = biological target: T1, EspB of Citrobacter rodentium (Citrobacter rodentium DBS100); assay: western blot of culture supernatants, detection with mAb-EspB-B7
T1 construct: also called C. rodentium EspB

[2] = biological target: T2, native EspB of wild-type EPEC; assay: as above
T2 construct: also called EspB in the assembled T3SS; WT EPEC

B1: mAb-EspB-B7 (antibody, V domains shown)
VH: EVQLLESGGGLVQPGGSLRLSCAASGFTFSHYAMNWVRQAPGKGLEWVSAINSNGDSTYYPDTVKDRFTISRDNSKNTLYLQMNSLRAEDTAVYYCARDRRAGYFDYWGQGTLVTVSS
VL: DIVLTQPPSASGTPGQRVTISCSGSRDNIGKNYVSWYQQLPGTAPKLLIYRNNQRPSGVPDRFSGSKSGTSASLAISGLRSEDEADYYCSAWDTSLNAYVFGPGTQLTVL
notes: also called mAb-B7; EspB-specific monoclonal antibody
[1]
  binding result: binds
[2]
  binding result: binds
